Results as given in paper PMC9629720, “Lipids mediate supramolecular outer membrane protein assembly in bacteria” (Science Advances, 2022).
Values belong to the molecule of their own block, whether it stands above or below them.

Tests used:
[1] = target: OmpF V177^BPA cross-linked to phospholipid (anion exchange peak 1) (E. coli) (UniProt P02931); assay: native MS; purified OmpF samples, 5 μM in 1% β-OG, 0.2 M ammonium acetate pH 6.9; the OmpF trimer itself
[2] = target: OmpF (endogenous, co-extracted with FepA^BPA) (E. coli (endogenous in BW25113)) (UniProt P02931); assay: native MS; FepA^BPA preparations with co-extracted porins, 5 μM in 1% β-OG, 0.2 M ammonium acetate pH 6.9; make-up of the porin trimers
[3] = target: OmpF, wild type, purified (E. coli) (UniProt P02931); assay: native MS; purified OmpF samples, 5 μM in 1% β-OG, 0.2 M ammonium acetate pH 6.9; the OmpF trimer itself
[4] = target: OmpF V177^BPA cross-linked to LPS (anion exchange peak 2) (E. coli) (UniProt P02931); assay: as above
[5] = target: T1, OmpF (endogenous, co-extracted with FepA^BPA) (E. coli (endogenous in BW25113), UniProt P02931 23-362); assay: native MS; FepA^BPA preparations with co-extracted porins, 5 μM in 1% β-OG, 0.2 M ammonium acetate pH 6.9; make-up of the porin trimers; settings: partners not purified
T1 construct: OmpF, 16-stranded β barrel porin of E. coli; Found as homotrimers and as heterotrimers with OmpC; also called OmpF/C; porins; source: endogenous, outer membrane of E. coli BW25113 ΔfepA
T1 sequence (looked up): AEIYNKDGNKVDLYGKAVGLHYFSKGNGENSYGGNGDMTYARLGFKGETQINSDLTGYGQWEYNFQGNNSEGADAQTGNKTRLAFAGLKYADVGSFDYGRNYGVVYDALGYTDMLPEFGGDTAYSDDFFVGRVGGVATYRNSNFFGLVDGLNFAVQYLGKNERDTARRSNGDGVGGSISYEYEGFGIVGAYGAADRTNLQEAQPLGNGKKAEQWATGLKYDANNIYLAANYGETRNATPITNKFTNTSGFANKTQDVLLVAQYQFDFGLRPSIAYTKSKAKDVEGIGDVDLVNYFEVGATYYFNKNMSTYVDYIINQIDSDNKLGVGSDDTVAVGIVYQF

[6] = target: the molecule itself; assay: as above

Molecule: OmpF V177^BPA cross-linked to phospholipid (anion exchange peak 1) (from UniProt P02931 23-362) (natural protein)
- stoichiometry N [1]: 3

Molecule: OmpF, wild type, purified (from UniProt P02931 23-362) (natural protein)
- stoichiometry N [3]: 3

B1: OmpC (endogenous, co-extracted with FepA^BPA) (natural protein, E. coli (endogenous in BW25113), UniProt P06996 22-367, looked up)
chain: AEVYNKDGNKLDLYGKVDGLHYFSDNKDVDGDQTYMRLGFKGETQVTDQLTGYGQWEYQIQGNSAENENNSWTRVAFAGLKFQDVGSFDYGRNYGVVYDVTSWTDVLPEFGGDTYGSDNFMQQRGNGFATYRNTDFFGLVDGLNFAVQYQGKNGNPSGEGFTSGVTNNGRDALRQNGDGVGGSITYDYEGFGIGGAISSSKRTDAQNTAAYIGNGDRAETYTGGLKYDANNIYLAAQYTQTYNATRVGSLGWANKAQNFEAVAQYQFDFGLRPSLAYLQSKGKNLGRGYDDEDILKYVDVGATYYFNKNMSTYVDYKINLLDDNQFTRDAGINTDNIVALGLVYQF
notes: OmpC, porin, structural homolog of OmpF, E. coli; Found as homotrimers and as heterotrimers with OmpF; also called OmpF/C; porins; source: endogenous, outer membrane of E. coli BW25113 ΔfepA
- stoichiometry N [5]: 3
- stoichiometry N [6]: 3

Other lines, results leading:

- stoichiometry N [2]: 3
Molecule: OmpF (endogenous, co-extracted with FepA^BPA) (from UniProt P02931 23-362) (natural protein)

- stoichiometry N [4]: 3
Molecule: OmpF V177^BPA cross-linked to LPS (anion exchange peak 2) (from UniProt P02931 23-362) (natural protein)
